# Measured values published in IntAct's records for PubMed 22322943.
# B1: Axin-2 (Mus musculus), O88566 (parent)
# chain: MSSAVLVTLLPDPSSSFREDAPRPPVPGEEGETPPCQPSVGKVQSTKPMPVSSNARRNEDGLGEPEGRASPDSPLTRWTKSLHSLLGDQDGAYLFRTFLEREKCVDTLDFWFACNGFRQMNLKDTKTLRVAKAIYKRYIENNSVVSKQLKPATKTYIRDGIKKQQIGSVMFDQAQTEIQAVMEENAYQVFLTSDIYLEYVRSGGENTAYMSNGGLGSLKVLCGYLPTLNEEEEWTCADLKCKLSPTVVGLSSKTLRATASVRSTETAENGFRSFKRSDPVNPYHVGSGYVFAPATSANDSELSSDALTDDSMSMTDSSVDGVPPYRMGSKKQLQREMHRSVKANGQVSLPHFPRTHRLPKEMTPVEPAAFAAELISRLEKLKLELESRHSLEERLQQIREDEEKEGSEQALSSRDGAPVQHPLALLPSGSYEEDPQTILDDHLSRVLKTPGCQSPGVGRYSPRSRSPDHHHQHHHHQQCHTLLPTGGKLPPVAACPLLGGKSFLTKQTTKHVHHHYIHHHAVPKTKEEIEAEATQRVRCLCPGGTDYYCYSKCKSHPKAPEPLPGEQFCGSRGGTLPKRNAKGTEPGLALSARDGGMSSAAGAPQLPGEEGDRSQDVWQWMLESERQSKSKPHSAQSIRKSYPLESACAAPGERVSRHHLLGASGHSRSVARAHPFTQDPAMPPLTPPNTLAQLEEACRRLAEVSKPQKQRCCVASQQRDRNHSAAGQAGASPFANPSLAPEDHKEPKKLASVHALQASELVVTYFFCGEEIPYRRMLKAQSLTLGHFKEQLSKKGNYRYYFKKASDEFACGAVFEEIWDDETVLPMYEGRILGKVERID
# Variants of: B1
# Settings: with cdc20_human CDC20, Q12834
# cdc20_human CDC20, Q12834, sequence (Q12834 whole entry): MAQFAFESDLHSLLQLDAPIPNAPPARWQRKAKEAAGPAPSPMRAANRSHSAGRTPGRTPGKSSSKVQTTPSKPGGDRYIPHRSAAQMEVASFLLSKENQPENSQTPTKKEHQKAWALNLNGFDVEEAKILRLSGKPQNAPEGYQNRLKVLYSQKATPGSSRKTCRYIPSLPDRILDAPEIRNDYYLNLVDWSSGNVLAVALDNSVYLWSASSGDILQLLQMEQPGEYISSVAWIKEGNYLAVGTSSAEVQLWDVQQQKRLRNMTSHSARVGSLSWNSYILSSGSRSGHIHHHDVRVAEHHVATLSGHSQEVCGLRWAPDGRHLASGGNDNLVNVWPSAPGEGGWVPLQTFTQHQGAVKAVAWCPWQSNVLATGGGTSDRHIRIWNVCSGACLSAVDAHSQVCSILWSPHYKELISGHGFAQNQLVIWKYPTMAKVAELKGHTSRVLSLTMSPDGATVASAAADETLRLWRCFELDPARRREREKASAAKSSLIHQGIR
row,effect of a mutation on the interaction,Variant
1,decreasing interaction,L778A
2,decreasing interaction,R388A
3,decreasing interaction,R776A
4,decreasing interaction,L660A
5,decreasing interaction,R657A
6,decreasing interaction,L391A
7,decreasing interaction,R775A

# Variants of: B1
# Settings: with cdc20_human CDC20, Q12834
# Remark: another data set of the same source
row,effect of a mutation on the interaction,Variant
1,decreasing interaction,R96A
2,decreasing interaction,L99A
